In US20210355220A1 (TIKCRO TECHNOLOGIES, published 2021):
Read-outs that look alike come from different tables or passages of the source.

Assays:
[1] = target: non-recycling version of CTLA-4 on CTLA-4 effector cells (Promega CS186920) (human, UniProt P16410 36-223); assay: cell-based or functional assay
[2] = target: T1, CTLA-4-his reduced with 100 mM DTT to its monomeric form (human, UniProt P16410 36-162); assay: ELISA, plate coated with DTT-reduced CTLA-4-his (monomer), anti-human-HRP, OD450; the box beside the curves does not name the quantity, the value lies at the half-maximal point of the curve (OD450 0.2 to 1.4)
T1 construct: Same bought protein as the dimer, reduced with DTT before coating; also called monomer hCTLA-4; not shown: his tag
T1 sequence (P16410 36-162 limits assumed): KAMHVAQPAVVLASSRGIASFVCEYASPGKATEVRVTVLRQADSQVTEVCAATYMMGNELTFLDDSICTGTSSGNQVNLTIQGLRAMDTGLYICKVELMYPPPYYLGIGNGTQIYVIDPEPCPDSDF
Procedure: (§1) hCTLA-4 can exist in monomer and dimer forms on the cell surface. […] The recombinant protein was incubated for 10 minutes with 100 mM DTT to reduce the protein to its monomeric form. […] The plates were coated overnight at 4° C., followed by a wash step and blocking with 20% milk for 1 hour at 37° C. […] The plate was washed and a secondary anti-human-HRP antibody (Jackson) was added at a 1:5000 dilution. A TMB solution was added, followed by stop solution and the OD at 450 nm was measured. Data was analyzed with Prism software.

[3] = target: T2, human CTLA-4 expressed on cells (human, UniProt P16410 36-223); assay: flow cytometry, inhibition of CD86-mFC binding to HEK293-hCTLA-4 cells, reference tremelimumab
T2 construct: whole, on cells; On stably or transiently transfected HEK293 cells; also called hCTLA-4; HEK293-hCTLA-4 cells
T2 sequence (P16410 36-223): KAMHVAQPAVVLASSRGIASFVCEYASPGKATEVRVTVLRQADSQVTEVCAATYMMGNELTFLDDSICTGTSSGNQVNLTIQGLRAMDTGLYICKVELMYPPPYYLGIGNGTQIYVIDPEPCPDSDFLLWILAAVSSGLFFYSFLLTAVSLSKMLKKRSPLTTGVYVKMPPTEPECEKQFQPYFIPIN
Procedure: (§2) As part of their activity, CTLA-4 therapeutic antibodies block the interaction between CTLA-4 and its ligands, leaving the ligands free for CD28 binding. […] First, HEK293-hCTLA-4 cells were incubated with the tested antibodies in a serial dilution for 30 minutes. […] The fluorescence was measured and analyzed. The experiment was performed in triplicate and is representative of three biological repeats.

[4] = target: T3, Macaque (Macaca fascicularis) CTLA-4 on HEK293 cells (Macaca fascicularis, UniProt G7PL88 36-223); assay: flow cytometry on HEK293 cells transiently expressing macaque CTLA-4
T3 construct: whole, on cells; also called macaque CTLA-4
T3 sequence (G7PL88 entry or part of it): as the sequence (P16410 36-223) above, with S14N, I18T, L106M counted along it
Procedure: (§3) Macaque (Macaca fascicularis), pig (Sus scrofa) and mouse (Mus musculus) CTLA-4 proteins were transiently expressed on the surface of HEK293 cells. […] Binding was measured using FACS and analyzed.

[5] = target: T2, human CTLA-4 expressed on cells; assay: flow cytometry on HEK293-hCTLA-4 cells
Procedure: (§4) To test the binding of antibodies to CTLA-4 under more physiological conditions, the binding of CTLA-4 antibodies to cell-surface CTLA-4 was tested. […] The surface expression of hCTLA-4 in the obtained cell line was tested using a commercial anti-CTLA-4 antibody and compared to the parent cell line (HEK293 without transfection). […] The anti-CTLA-4 antibodies were incubated in serial dilution concentrations with the HEK293-hCTLA-4 cells for 1 hour on ice. Following a wash step, an anti-human antibody conjugated to ALEXA FLUOR® 647® was added for an additional hour. The cells were washed, and propidium iodide (PI) was added to exclude dead cells. The fluorescent signal was measured using FACS and analyzed. Dead cells were removed based on the PI signal. The population was gated based on forward and side scatter (FSC and SSC) parameters, and doublets were removed. The Median Fluorescent Intensity (MFI) of the appropriate channel was calculated for the live single cells from each group. The MFI was plotted versus antibody concentration in Prism software (V6.01) and kinetic parameters were obtained using a curve fit dose response function with four parameters. […] The lower EC₅₀ values indicate increased binding affinity to cell surface hCTLA-4.

[6] = target: T2, human CTLA-4 expressed on cells; assay: flow cytometry, inhibition of CD80-mFC binding to HEK293-hCTLA-4 cells, reference tremelimumab
Procedure: as §2

[7] = target: T4, Recombinant human CTLA-4-his (Sino Biologicals, 11159-H08H) (human, UniProt P16410 36-162); assay: ELISA, plate coated with non-reduced CTLA-4-his (dimer), anti-human-HRP, OD450; the box beside the curves does not name the quantity, the value lies at the half-maximal point of the curve (OD450 0.2 to 1.4)
T4 construct: Bought protein; also called dimer hCTLA-4; not shown: his tag
T4 sequence (P16410 36-162 limits assumed): as the sequence (P16410 36-162 limits assumed) above
Procedure: as §1

[8] = target: T2, human CTLA-4 expressed on cells; assay: flow cytometry, inhibition of CD80-mFC binding to HEK293-hCTLA-4 cells, reference ipilimumab
Procedure: as §2

hPDL2 on HEK293 cells = target: T5, hPDL2 on HEK293 cells (human, UniProt Q9BQ51 20-273); assay: flow cytometry on transfected HEK293 cells
T5 construct: whole, on cells
T5 sequence (looked up): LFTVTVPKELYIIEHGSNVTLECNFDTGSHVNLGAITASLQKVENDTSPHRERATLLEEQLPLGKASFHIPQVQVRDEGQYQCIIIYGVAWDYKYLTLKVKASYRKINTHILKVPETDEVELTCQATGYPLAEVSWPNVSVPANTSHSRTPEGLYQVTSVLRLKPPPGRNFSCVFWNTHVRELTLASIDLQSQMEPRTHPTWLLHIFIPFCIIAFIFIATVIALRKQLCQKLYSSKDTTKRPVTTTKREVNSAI
Procedure: (§5) HEK293 cells were transfected with expression vectors of the following immune-related proteins: hBTLA, hICOS, hCD28, hPDL1, hPD1, hPDL2, and hCTLA-4. Over-expression of the proteins was verified using commercial antibodies against each target. […] Antibody binding to cells was then detected using flow cytometry. Cells that were incubated only with the secondary antibody were used as a background control. […] Note that “+” indicates binding above the background level and “-” indicate no binding as compared to the background level.

hPD1 on HEK293 cells = target: T6, hPD1 on HEK293 cells (human, UniProt Q15116 25-288); assay: flow cytometry on transfected HEK293 cells
T6 construct: whole, on cells
T6 sequence (Q15116 25-288): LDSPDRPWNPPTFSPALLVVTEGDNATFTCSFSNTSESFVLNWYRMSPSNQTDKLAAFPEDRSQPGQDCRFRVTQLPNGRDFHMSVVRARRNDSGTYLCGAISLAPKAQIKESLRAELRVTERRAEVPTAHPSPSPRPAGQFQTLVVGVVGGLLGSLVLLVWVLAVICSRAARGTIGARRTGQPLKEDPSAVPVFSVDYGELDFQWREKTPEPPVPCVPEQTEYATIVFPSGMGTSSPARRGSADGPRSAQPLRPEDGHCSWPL
Procedure: as §5

hBTLA on HEK293 cells = target: T7, hBTLA on HEK293 cells (human, UniProt Q7Z6A9 31-289); assay: flow cytometry on transfected HEK293 cells
T7 construct: whole, on cells
Procedure: as §5

[9] = target: T8, Mouse (Mus musculus) CTLA-4 on HEK293 cells (Mus musculus, UniProt P09793 36-223); assay: flow cytometry on HEK293 cells transiently expressing mouse CTLA-4
T8 construct: whole, on cells; also called mouse CTLA-4
Procedure: as §3

[10] = target: T2, human CTLA-4 expressed on cells; assay: flow cytometry on HEK293-hCTLA-4 cells; remark: listed apart in the source
Procedure: as §4

Chain of non-recycling version of CTLA-4 on CTLA-4 effector cells (Promega CS186920) (P16410 36-223): as the sequence (P16410 36-223) above

NFAT reporter EC50 [1]: 0.63 nM
NFAT reporter EC50, Ratio Ipilimumab:Ab55h [1]: 3.65 fold
EC50 [2]: 2 pM
Ratio Tremelimumab:Ab55h of IC50 [3]: 2.8 fold
EC50 [4]: 0.3 nM
EC50 [5]: 0.24 nM
Ratio Tremelimumab:Ab55h of IC50 [6]: 1.6 fold
EC50 [7]: 8 pM
Ratio Ipilimumab:Ab55h of IC50 [8]: 3 fold
MFI (hPDL2 on HEK293 cells): 70 MFI
binding result (hPDL2 on HEK293 cells): no binding
MFI (hPD1 on HEK293 cells): 72 MFI
binding result (hPD1 on HEK293 cells): no binding
MFI (hBTLA on HEK293 cells): 68 MFI
binding result (hBTLA on HEK293 cells): no binding
EC50 [9]: 34 nM
EC50 [10]: 0.17 nM
B1: Ab55h (antibody, V domains shown)
VH: QVQLQESGPGLVKPSETLSLTCAVSGYSISGDYYWGWIRQPPGKGLEWIGSIYHSGYTYYNPSLKSRVTISVDTSKNQFSLKLSSVTAADTAVYYCARDSGWYVIAFDYWGQGTLVTVSS
VL: EIVMTQSPATLSVSPGERATLSCRASQSVSSNLAWYQEKPGQAPRLLIYGASTRATGIPARFSGSGSGTEFTLTISSLQSEDFAVYYCQQYNNWPPLTFGGGTKVEIK
notes: Human form, compared with an hIgG1 isotype control
